Experimental data published in patent US20160235855A1, “STABLE AQUEOUS PARENTERAL PHARMACEUTICAL COMPOSITIONS OF INSULINOTROPIC PEPTIDES” (SHANGHAI BENEMAE PHARMACEUTICAL CORPORATION, priority 2013, published 2016).
Entries after “also recorded” stand apart in the source; their conditions may differ.

How the values were obtained:
[1] = Observation of appearance with the naked eye (physical stability); type: physicochemical
Text: Each buffer was also designed to have 4 salt concentrations.
(§1) If there was evident precipitation or turbidity, no further determination would be carried out. If the samples had no abnormal phenomena observable with the naked eye, the samples were taken and subjected to determination of absorption values at 360 nm and HPLC detection, wherein the former investigated the physical stability, and the latter investigated the chemical stability.
The solutions were mixed uniformly, filtered through a 0.22 μm filter membrane, dispensed into 2 mL Penicillin bottles, and placed at different temperatures for investigation. A series of sampling time points were arranged. After sampling, the samples were firstly observed with the naked eye for appearance.
The solutions were adjusted to pH 3.5-4.0, mixed uniformly, filtered through a 0.22 μm filter membrane, dispensed into 2 mL Penicillin bottles, and placed at different temperatures for investigation. A series of sampling time points were arranged. The samples were firstly observed with the naked eye for appearance. If no evident turbidity or gelatination was occurred, the sample was considered as qualified as for physical stability, and then subjected to HPLC detection to analyze the chemical stability.

[2] = Absorption values at 360 nm (physical stability); type: physicochemical; conditions: for Absorption values at 360 nm: 8 days
Text: as §1
Absorption values determined at a wavelength of 360 nm were compared, so as to compare differences in physical stability among the samples. A higher absorption value indicated poorer physical stability.

## Glucagon-like peptide 1 [GLP-1]
[1]; 20 mmol/L Na2HPO4-NaH2PO4 pH 7.0, NaCl 0 mmol/L
  Situations of samples after preparation: Clear and transparent
[1]; 20 mmol/L Na2HPO4-NaH2PO4 pH 7.0, NaCl 20 mmol/L
  Situations of samples after preparation: Clear and transparent
[1]; 20 mmol/L Na2HPO4-NaH2PO4 pH 7.0, NaCl 150 mmol/L
  Situations of samples after preparation: Clear and transparent
[1]; 20 mmol/L Na2HPO4-NaH2PO4 pH 7.0, NaCl 500 mmol/L
  Situations of samples after preparation: Clear and transparent
[1]; 20 mmol/L Na2HPO4-NaH2PO4 pH 7.5, NaCl 0 mmol/L
  Situations of samples after preparation: Clear and transparent
[1]; 20 mmol/L Na2HPO4-NaH2PO4 pH 7.5, NaCl 20 mmol/L
  Situations of samples after preparation: Clear and transparent
[1]; 20 mmol/L Na2HPO4-NaH2PO4 pH 7.5, NaCl 150 mmol/L
  Situations of samples after preparation: Clear and transparent
[1]; 20 mmol/L Na2HPO4-NaH2PO4 pH 7.5, NaCl 500 mmol/L
  Situations of samples after preparation: Clear and transparent
[1]; 20 mmol/L NaAC-HAC pH 3.0, NaCl 0 mmol/L
  Situations of samples after preparation: Clear and transparent
[1]; 20 mmol/L NaAC-HAC pH 3.0, NaCl 20 mmol/L
  Situations of samples after preparation: Clear and transparent
[1]; 20 mmol/L NaAC-HAC pH 3.0, NaCl 150 mmol/L
  Situations of samples after preparation: Clear and transparent
[1]; 20 mmol/L NaAC-HAC pH 3.0, NaCl 500 mmol/L
  Situations of samples after preparation: Clear and transparent
[1]; 20 mmol/L NaAC-HAC pH 3.5, NaCl 0 mmol/L
  Situations of samples after preparation: Clear and transparent
[1]; 20 mmol/L NaAC-HAC pH 3.5, NaCl 20 mmol/L
  Situations of samples after preparation: Clear and transparent
[1]; 20 mmol/L NaAC-HAC pH 3.5, NaCl 150 mmol/L
  Situations of samples after preparation: Clear and transparent
[1]; 20 mmol/L NaAC-HAC pH 3.5, NaCl 500 mmol/L
  Situations of samples after preparation: Turbid
[1]; 20 mmol/L NaAC-HAC pH 4.0, NaCl 0 mmol/L
  Situations of samples after preparation: Clear and transparent
[1]; 20 mmol/L NaAC-HAC pH 4.0, NaCl 20 mmol/L
  Situations of samples after preparation: Clear and transparent
[1]; 20 mmol/L NaAC-HAC pH 4.0, NaCl 150 mmol/L
  Situations of samples after preparation: Clear and transparent
[1]; 20 mmol/L NaAC-HAC pH 4.0, NaCl 500 mmol/L
  Situations of samples after preparation: Turbid
[1]; 20 mmol/L NaAC-HAC pH 4.5, NaCl 0 mmol/L
  Situations of samples after preparation: Difficult to filter
[1]; 20 mmol/L NaAC-HAC pH 4.5, NaCl 20 mmol/L
  Situations of samples after preparation: Difficult to filter
[1]; 20 mmol/L NaAC-HAC pH 4.5, NaCl 150 mmol/L
  Situations of samples after preparation: Difficult to filter
[1]; 20 mmol/L NaAC-HAC pH 4.5, NaCl 500 mmol/L
  Situations of samples after preparation: Difficult to filter,; also recorded: turbid
[1]; 20 mmol/L NaAC-HAC pH 5.0, NaCl 0, 20, 150, 500 mmol/L
  Situations of samples after preparation: Turbid or precipitated
[1]; 20 mmol/L citrate sodium-citric acid pH 5.5, NaCl 0, 20, 150, 500 mmol/L
  Situations of samples after preparation: Turbid or precipitated
[1]; 20 mmol/L citrate sodium-citric acid pH 6.0, NaCl 0 mmol/L
  Situations of samples after preparation: Precipitate sticking
[1]; 20 mmol/L citrate sodium-citric acid pH 6.0, NaCl 20 mmol/L
  Situations of samples after preparation: Precipitate sticking
[1]; 20 mmol/L citrate sodium-citric acid pH 6.0, NaCl 150 mmol/L
  Situations of samples after preparation: Precipitate sticking
[1]; 20 mmol/L citrate sodium-citric acid pH 6.0, NaCl 500 mmol/L
  Situations of samples after preparation: Precipitate sticking
[1]; 20 mmol/L citrate sodium-citric acid pH 6.5, NaCl 0 mmol/L
  Situations of samples after preparation: Turbid
[1]; 20 mmol/L citrate sodium-citric acid pH 6.5, NaCl 20 mmol/L
  Situations of samples after preparation: Turbid
[1]; 20 mmol/L citrate sodium-citric acid pH 6.5, NaCl 150 mmol/L
  Situations of samples after preparation: Turbid
[1]; 20 mmol/L citrate sodium-citric acid pH 6.5, NaCl 500 mmol/L
  Situations of samples after preparation: Turbid
[1]; pH 3.0
  Appearance of the sample: no turbidity or precipitation
[1]; pH 3.5 and pH 4.0, 0.5 M NaCl
  Appearance of the sample: turbidity
[1]; pH 4.0, NaCl 29.22 mg/mL
  Appearance of the sample (no determination carried out): Samples became turbid after formulation.
[1]; pH 4.5
  Appearance of the sample prepared: clear and transparent
[1]; pH 4.5, NaCl 29.22 mg/mL
  Appearance of the sample (no determination carried out): Samples became turbid after formulation.
[1]; pH 4.5, high salt concentration
  Appearance after formulation and heating treatment: turbidity
[1]; pH 5.0 to 6.5
  Appearance while the GLP-1 sample was prepared: turbidity or precipitation
[1]; pH 6.5, NaCl 0, 1.17, 8.77, 29.22 mg/mL
  Appearance of the sample (no determination carried out): Turbidity was generated after formulation and
[1]; pH value between about 4.5 and 6.5
  Appearance: turbidity or precipitation
[2]; pH 3.0, NaCl 0 mg/mL, 35° C.
  Absorption values at 360 nm: 0.0706
[2]; pH 3.0, NaCl 0 mg/mL, 45° C.
  Absorption values at 360 nm: 0.0844
[2]; pH 3.0, NaCl 1.17 mg/mL, 35° C.
  Absorption values at 360 nm: 0.0716
[2]; pH 3.0, NaCl 1.17 mg/mL, 45° C.
  Absorption values at 360 nm: 0.0724
[2]; pH 3.0, NaCl 8.77 mg/mL, 45° C.
  Absorption values at 360 nm: 0.1812
[2]; pH 3.0, NaCl 29.22 mg/mL, 35° C.
  Absorption values at 360 nm: 0.2052
[2]; pH 3.0, NaCl 29.22 mg/mL, 45° C.
  Absorption values at 360 nm: 0.2417
[2]; pH 3.5, NaCl 0 mg/mL, 35° C.
  Absorption values at 360 nm: 0.0684
[2]; pH 3.5, NaCl 0 mg/mL, 45° C.
  Absorption values at 360 nm: 0.0689
[2]; pH 3.5, NaCl 1.17 mg/mL, 35° C.
  Absorption values at 360 nm: 0.0694
[2]; pH 3.5, NaCl 1.17 mg/mL, 45° C.
  Absorption values at 360 nm: 0.0823
[2]; pH 3.5, NaCl 8.77 mg/mL, 35° C.
  Absorption values at 360 nm: 0.1882
[2]; pH 3.5, NaCl 8.77 mg/mL, 45° C.
  Absorption values at 360 nm: 0.1780
[2]; pH 4.0, NaCl 0 mg/mL, 35° C.
  Absorption values at 360 nm: 0.0686
[2]; pH 4.0, NaCl 0 mg/mL, 45° C.
  Absorption values at 360 nm: 0.0843
[2]; pH 4.0, NaCl 1.17 mg/mL, 35° C.
  Absorption values at 360 nm: 0.1354
[2]; pH 4.0, NaCl 1.17 mg/mL, 45° C.
  Absorption values at 360 nm: 0.1448
[2]; pH 4.0, NaCl 8.77 mg/mL, 35° C.
  Absorption values at 360 nm: 0.1907
[2]; pH 4.0, NaCl 8.77 mg/mL, 45° C.
  Absorption values at 360 nm: 0.1974
[2]; pH 4.5, NaCl 0 mg/mL, 35° C.
  Absorption values at 360 nm: 0.1326
[2]; pH 4.5, NaCl 0 mg/mL, 45° C.
  Absorption values at 360 nm: 0.1370
[2]; pH 4.5, NaCl 1.17 mg/mL, 35° C.
  Absorption values at 360 nm: 0.1655
[2]; pH 4.5, NaCl 1.17 mg/mL, 45° C.
  Absorption values at 360 nm: 0.1814
[2]; pH 7.0, NaCl 0 mg/mL, 35° C.
  Absorption values at 360 nm: 0.0813
[2]; pH 7.0, NaCl 0 mg/mL, 45° C.
  Absorption values at 360 nm: 0.0828
[2]; pH 7.0, NaCl 1.17 mg/mL, 35° C.
  Absorption values at 360 nm: 0.0864
[2]; pH 7.0, NaCl 1.17 mg/mL, 45° C.
  Absorption values at 360 nm: 0.0865
[2]; pH 7.0, NaCl 8.77 mg/mL, 35° C.
  Absorption values at 360 nm: 0.0824
[2]; pH 7.0, NaCl 8.77 mg/mL, 45° C.
  Absorption values at 360 nm: 0.0841
[2]; pH 7.0, NaCl 29.22 mg/mL, 35° C.
  Absorption values at 360 nm: 0.0850
[2]; pH 7.0, NaCl 29.22 mg/mL, 45° C.
  Absorption values at 360 nm: 0.0862
[2]; pH 7.0 and 7.5
  physical stability: normal
[2]; pH 7.5, NaCl 0 mg/mL, 35° C.
  Absorption values at 360 nm: 0.0807
[2]; pH 7.5, NaCl 0 mg/mL, 45° C.
  Absorption values at 360 nm: 0.0859
[2]; pH 7.5, NaCl 1.17 mg/mL, 35° C.
  Absorption values at 360 nm: 0.0799
[2]; pH 7.5, NaCl 1.17 mg/mL, 45° C.
  Absorption values at 360 nm: 0.0937
[2]; pH 7.5, NaCl 8.77 mg/mL, 35° C.
  Absorption values at 360 nm: 0.0846
[2]; pH 7.5, NaCl 8.77 mg/mL, 45° C.
  Absorption values at 360 nm: 0.0902
[2]; pH 7.5, NaCl 29.22 mg/mL, 35° C.
  Absorption values at 360 nm: 0.0861
[2]; pH 7.5, NaCl 29.22 mg/mL, 45° C.
  Absorption values at 360 nm: 0.0942
